Results: paper PMC10937945

Molecular target: HTNV-L (full-length Hantaan virus polymerase, L protein) (Hantaan virus (strain 76-118/Korean …, UniProt P23456 1-2151))
Assay: cryo-EM; 30 mM HEPES pH 8, 250 mM NaCl, 5 mM TCEP ([…]; temperature not stated
Conditions: protein: recombinant; tags: N-terminal His6

Sequence of HTNV-L (full-length Hantaan virus polymerase, L protein) (Hantaan virus (P23456 whole entry): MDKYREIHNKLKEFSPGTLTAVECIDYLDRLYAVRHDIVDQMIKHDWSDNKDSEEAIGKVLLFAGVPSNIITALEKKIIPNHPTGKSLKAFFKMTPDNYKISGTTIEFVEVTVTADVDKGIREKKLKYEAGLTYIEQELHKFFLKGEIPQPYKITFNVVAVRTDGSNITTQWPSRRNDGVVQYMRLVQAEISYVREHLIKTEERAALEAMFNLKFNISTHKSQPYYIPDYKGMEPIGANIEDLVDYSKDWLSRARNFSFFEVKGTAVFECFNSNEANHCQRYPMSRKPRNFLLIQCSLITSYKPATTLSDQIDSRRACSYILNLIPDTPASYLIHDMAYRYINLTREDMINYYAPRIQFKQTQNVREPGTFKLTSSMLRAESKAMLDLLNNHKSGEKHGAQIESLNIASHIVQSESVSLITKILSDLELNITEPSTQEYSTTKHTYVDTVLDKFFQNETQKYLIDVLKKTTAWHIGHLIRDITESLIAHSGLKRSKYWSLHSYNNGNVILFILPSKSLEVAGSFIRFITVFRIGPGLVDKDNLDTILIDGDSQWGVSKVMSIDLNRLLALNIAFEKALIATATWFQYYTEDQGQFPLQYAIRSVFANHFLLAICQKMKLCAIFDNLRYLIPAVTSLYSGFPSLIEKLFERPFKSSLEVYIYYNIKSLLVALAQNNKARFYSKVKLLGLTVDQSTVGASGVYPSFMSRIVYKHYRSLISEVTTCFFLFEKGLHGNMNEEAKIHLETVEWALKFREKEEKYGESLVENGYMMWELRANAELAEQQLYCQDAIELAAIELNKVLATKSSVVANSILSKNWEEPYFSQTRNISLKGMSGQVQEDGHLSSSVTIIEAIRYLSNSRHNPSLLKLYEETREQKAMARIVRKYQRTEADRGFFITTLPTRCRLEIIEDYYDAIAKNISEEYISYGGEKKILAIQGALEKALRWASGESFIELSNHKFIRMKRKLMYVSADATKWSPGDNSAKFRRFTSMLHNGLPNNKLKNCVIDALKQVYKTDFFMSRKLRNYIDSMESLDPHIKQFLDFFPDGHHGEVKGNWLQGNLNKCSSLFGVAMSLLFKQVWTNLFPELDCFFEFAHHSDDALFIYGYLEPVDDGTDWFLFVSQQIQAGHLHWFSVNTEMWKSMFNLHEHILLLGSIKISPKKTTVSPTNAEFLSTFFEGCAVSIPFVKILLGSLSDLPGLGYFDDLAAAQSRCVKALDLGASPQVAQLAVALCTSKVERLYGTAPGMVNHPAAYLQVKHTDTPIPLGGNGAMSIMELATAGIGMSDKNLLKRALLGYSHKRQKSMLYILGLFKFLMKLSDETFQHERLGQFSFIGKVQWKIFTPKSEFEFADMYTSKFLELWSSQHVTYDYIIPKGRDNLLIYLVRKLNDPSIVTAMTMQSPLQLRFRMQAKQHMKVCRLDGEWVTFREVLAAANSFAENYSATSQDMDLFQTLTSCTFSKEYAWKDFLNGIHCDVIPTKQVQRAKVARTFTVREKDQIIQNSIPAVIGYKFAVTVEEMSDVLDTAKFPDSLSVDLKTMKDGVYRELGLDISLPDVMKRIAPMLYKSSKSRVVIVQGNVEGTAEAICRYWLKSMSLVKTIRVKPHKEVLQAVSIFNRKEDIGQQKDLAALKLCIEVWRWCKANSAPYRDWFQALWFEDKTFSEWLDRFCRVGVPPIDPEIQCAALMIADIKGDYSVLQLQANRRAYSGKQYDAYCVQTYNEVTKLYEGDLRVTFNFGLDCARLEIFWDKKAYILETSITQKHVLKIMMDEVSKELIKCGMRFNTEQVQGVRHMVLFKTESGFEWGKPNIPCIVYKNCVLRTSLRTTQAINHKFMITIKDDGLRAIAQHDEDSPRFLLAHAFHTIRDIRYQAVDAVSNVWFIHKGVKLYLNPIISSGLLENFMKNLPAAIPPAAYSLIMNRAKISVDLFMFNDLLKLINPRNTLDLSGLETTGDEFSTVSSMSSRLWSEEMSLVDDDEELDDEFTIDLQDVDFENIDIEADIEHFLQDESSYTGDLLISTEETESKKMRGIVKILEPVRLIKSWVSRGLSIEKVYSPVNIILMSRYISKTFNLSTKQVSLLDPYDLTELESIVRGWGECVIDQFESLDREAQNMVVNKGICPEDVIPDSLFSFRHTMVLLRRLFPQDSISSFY

## UAGUAGUAGACACCGCAAGAUGUUA (ssRNA) [5'vRNA]
  binding result: binds
